Results published in doi:10.1101/559005.

Assays:
[1] = target: ScSth1p bromodomain (residues 1250-1359), wild type (S. cerevisiae) (UniProt P32597); assay: ITC
[2] = target: ScSth1p Ser1276Glu mutant bromodomain (S. cerevisiae) (UniProt P32597); assay: ITC

Kd [1] | Kd [2] | Substance
18 µM | 3 µM | H3K14ac peptide
48 µM | 31 µM | H4K20ac peptide
44 µM |  | HsH2AK15ac peptide
